Reference: patent publication US20220218748

B1: membrane-bound IdeS (IdeS-tm) (protein)
chain 1: DSFSANQEIRYSEVTPYHVTSVWTKGVTPPAKFTQGEDVFHAPYVANQGWYDITKTFNGKDDLLCGAATAGNMLHWWFDQNKEKIEAYLKKHPDKQKIMFGDQELLDVRKVINTKGDQTNSELFNYFRDKAFPGLSARRIGVMPDLVLDMFINGYYLNVYKTQTTDVNRTYQEKDRRGGIFDAVFTRGDQSKLLTSRHDFKEKNLKEISDLIKKELTEGKALGLSHTYANVRINHVINLWGADFDSNGNLKAIYVTDSDSNASIGMKKYFVGVNSAGKVAISAKEIKEDNIGAQVLGLFTLSTGQDSWNQTN
chain 2: not shown
B2: secreted IdeS (IdeS-sec) (protein)
chain: DSFSANQEIRYSEVTPYHVTSVWTKGVTPPAKFTQGEDVFHAPYVANQGWYDITKTFNGKDDLLCGAATAGNMLHWWFDQNKEKIEAYLKKHPDKQKIMFGDQELLDVRKVINTKGDQTNSELFNYFRDKAFPGLSARRIGVMPDLVLDMFINGYYLNVYKTQTTDVNRTYQEKDRRGGIFDAVFTRGDQSKLLTSRHDFKEKNLKEISDLIKKELTEGKALGLSHTYANVRINHVINLWGADFDSNGNLKAIYVTDSDSNASIGMKKYFVGVNSAGKVAISAKEIKEDNIGAQVLGLFTLSTGQDSWNQTN

Target: human polyclonal IgG

| Protein | cleavage of IgG, SDS-PAGE with Coomassie stain and anti-human Fc blot | cleavage ELISA |
| --- | --- | --- |
| B1 | Cleaved Ig appeared within 5 min and increased over time | – |
| B2 | – | IdeS-sec efficiently cleaved human polyclonal IgG at different time points |
